Numbering of substitutions follows the chain as printed.

Data on 25 molecules can be found in paper PMC8299219 (Cell, 2021).

The assay addresses SARS-CoV-2 S ectodomain trimer, prefusion-stabilized, 2P variant (Wrapp et al., 2020) (SARS-CoV-2, Wuhan-Hu-1, UniProt P0DTC2, stabilised).

B1: G32B6 (antibody, V domains shown)
VH: QVQLVQSGAEVKKPGASVKVSCKASGYTFTGYYMYWVRQAPGQGLEWMGWINPNSGGTNYAQKFQGRVTMTRDRSISTAYMELSRLRSDDTAMYYCARDRVGDILTGYYGYWGQGTLVTVSS
VL: QSALTQPPSASGSPGQSVTISCTGTSSDVDSYNYVSWYQQHPGKAPKLMIYEVSKRPSGVPDRFSGSKSGNTASLTVSGLQAEDEADYYCSSYAGSNNWVFGGGTKLTVL
On to B1, for which the binding result is recorded as “binds”.

B2: G32A8 (antibody, V domains shown)
VH: QVQLVQSGAEVKKPGASVKVSCKASGYTFTGYYMHWVRQAPGQGLEWMGWINPNSGATNYAQKFQGRVTMTRDTSINTAYMELNRLRSDDTAVYYCARDIVFSRLGASFDYWGQGTLVTVSS
VL: B1 VL with D30G, S31G, S54T, N98Y, W99N
As to B2, the binding result was “binds”.

B3: C63C8 (antibody, V domains shown)
VH: EVQLVESGGGLVQPGGSLRLSCAASGFTFSSYWMSWVRQAPGKGLEWVANIKQDGSEKYYVDSVKGRFTMSRDNAKNSLYLQMNSLRAEDTAVYYCASLRWLQADFEYWGQGTLVTVSS
VL: NFMLTQPHSVSESPGKTVTISCTRSSGSIASNYVQWYQQRPGSSPTTVIYEDNQRPSGVPDRFSGSIDSSSNSASLTISGLKTEDEADYYCQSYDSTNHVFGTGTKVTVL
Consider B3, for which the binding result was “binds”.

B4: C30C2 (antibody, V domains shown)
VH: EVQLVESGGGLVQPGGSLRLSCAASGFTVSSNYMSWVRQAPGKGLEWVSVIYSGGSTYYADSVKGRFTISRDNSKNTLYLQVNSLRAEDTAVYYCARDGRDNAFDIWGQGTMVTVSS
VL: not shown
Consider B4, for which the binding result is “binds”.

B5: C98C7 (antibody, V domains shown)
VH: EVQLVESGGGLVQPGGSLRLSCAASGITVSSNYMSWVRQAPGKGLEWVSVIYSGGSTFYADSVKGRFTISRDNSKNTLYLQMSSLRAEDTAVYYCARDLVVFGMDVWGQGTTVTVSS
VL: EIVLTQSPGTLSLSPGETATLSCRASQSVGSSYLTWYQQKPGQAPRLLIYGASSRATGIPDRFSGSGSGTDFTLTISRLEPEDFAVYYCQHYGSSPTFGQGTKVEIK
B5: the binding result is listed as “binds”.

B6: C15D4 (antibody, V domains shown)
VH: QVQLQQWGAGLLKPSETLSRTCAVYGGSFSGYYWTWIRQPPGMALEWIGDINHGGVTNYNPSLKSRVTISVDTSKNQFSLRLTSVTAADTAVYYCARRLLGDPRPASSSLSLRRVSYMDVWDKGTTVTVSS
VL: DIQMTQSPSSMSASVGDRVTITCRASQSISNYLNWYQQKPGRAPKLLIYGASSLQSGVPSRFGGSGSGTEFTLTITALQPEDSATYYCQQIHGAPPITFGQGTRLEIK
B6: the binding result was “binds”.

B7: G32Q4 (antibody, V domains shown)
VH: QVQLVESGGGVVQPGRSLRLSCAASGFTFSRYAMQWVRQAPGKGLEWVAVISYDGNNRYYADSVKGRFTISRDNSKNTLYLQMNSLRAEDTAVYYCARGPPGYYDSSGYYQTPEYFQHWGQGTLVTVSS
VL: QSVLTQPPSVSGAPGQRVTISCTGSSSNIGVGYDVHWYQQFPGTVPKLLIYGNSNRPSGVPDRFSGSKSGTSASLAITGLQAEDEADYYCQSYDSSLSGVVFGGGTKLTVL
In the case of B7, the binding result is on record as “binds”.

B8: C12D5 (antibody, V domains shown)
VH: QVQLVESGGGVVQPGRSLRLSCAASGFTFSSYVMHWVRQAPGKGLEWVAVISYDGSNKYYADSVKGRFTISRDNSKNTLYLQMNSLRAEDTAVYYCARDPGARRDGYVSLGGSYDWFDPWGQGTLVTVSS
VL: B7 VL with S25T, V31A, F41L, V45A, V100W
Turning to B8, the binding result was “binds”.

B9: C15D10 (antibody, V domains shown)
VH: QVQLQQSGPGLVKPSQTLSLTCAISGDSVSSNSAAWNWIRQSPSRGLEWLGRTYYRSKWYNDYAVSVKSRITINPDTSKNQFSLQLNSVTPEDTAVYYCAREQQLVSHDYYYYYGMDVWGQGTTVTVSS
VL: QSALTQPASVSGSPGQSITISCTGTSSDVGGYNYVSWYQQHPGKAPKLMIYDVSNRPSGVSNRFSGSKSGNTASLTISGLQAEDEADYYCSSYTSSSSLFGTGTKVTVL
For B9, the binding result was “binds”.

B10: C89A10 (antibody, V domains shown)
VH: EVQLLESGGGLVQPGGSLRLSCAASGFIFSSYAMSWVRQAPGKGLEWVSVISGSGDITYYADSVKGRFTISRDNSKNTLYLQMNSLRAEDTAVYYCAKDIDEPTAMVESWGYWGQGTLVTVSS
VL: QSALTQPRSVSGSPGQSVTISCTGTSSDVGGYNYVSWYQQHPGKAPKLMIYDVSKRPSGVPDRFSGSKSGNTASLTISGLQAEDEADYYCCSYAGSWVFGGGTKLTVL
B10: the binding result is reported as “binds”.

B11: G32Q3 (antibody, V domains shown)
VH: QVQLVQSGTEVKKPGASVKVSCKASGYTFPNYGITWVRQAPGQGLEWVGWISAYNGNTNYAQKLQGRVTMTTDTSTNTAYMELRSLRSDDTAVYYCARSIAVAGTTAEFDYWGQGTLVTVSS
VL: not shown
As for B11, the binding result was “binds”.

B12: C53F11 (antibody, V domains shown)
VH: QVQLQESGPGLVKPSETLSLTCTVSGYSISSGYYWGWIRQPPGKGLEWIGSIYHSESTYYNPSLKSRVTISVDTSKSQFSLKLSSVTAADTAVYYCGRSLWDSIWEDHIGAVDYWGQGTLVTVSS
VL: QSALTQPASVSGSPGQSITISCTGTSSDVGNYNLVSWYQQHPGKAPKLMIYEGSKRPSGVSNRFSGSKSGNTASLTISGLQAEDEADYYCCSYAGSSILWVFGGGTKLTVL
In the case of B12, the binding result is given as “binds”.

B13: G32B1 (antibody, V domains shown)
VH: QVQLVESGGGVVQPGRSLRLSCAASGFTFSSYGMHWVRQAPGKGLEWVAVISYDGSNKYYADSVKGRFTISRDNSKNTLYLQMNSLRAEDTAVYYCAKVVAPYYYYYYGMDVWGQGTTVTVSS
VL: B12 VL with N31G, L34Y, G53V, K55N, C91S, A94T, G95S, I98T, L99S
B13: the binding result is listed as “binds”.

B14: C12C10 (antibody, V domains shown)
VH: not shown
VL: B12 VL with N31G, L34Y, E52D, G53V, K55Y, C91S, A94T, G95S, W100G
Regarding B14, the binding result is listed as “binds”.

B15: C63C7 (antibody, V domains shown)
VH: not shown
VL: QSVLTQPPSVSGAPGQRATISCTGSSSNIGAGYDVHWYQQLPGTSPKLLIYGNSNRPSGVPDRFSGSKSGTSASLAITGLQAEDEAEYYCQSYDSSLSGSVVFGGGTKLTVL
With B15, the binding result is “binds”.

B16: C18C10 (antibody, V domains shown)
VH: EVQLVESGGGLVQPGGSLRLSCAASGFTFSNYAISWVRQAPGKGLEWVSLISGSGGSTYYADSVKGRFTISRDNSKNTLYLQMNSLRAEDTAVYYCATTNIPPFSGYYLDAFDIWGQGTMVTVSS
VL: not shown
Regarding B16, the binding result is “binds”.

B17: G32C4 (antibody, V domains shown)
VH: EVQLVQSGAEVKKPGESLKISCKGSGYSFISYWIGWVRQMPGKGLEWMGIIYPGDSDTRYSPSFQGQVTISADKSISTAYLQWSSLKASDTAMYYCARMTQGYGTIRPLYYFDYWGQGTLVTVSS
VL: not shown
B17: the binding result is recorded as “binds”.

B18: C53F9 (antibody, V domains shown)
VH: QVQLVQSGAEVKKPGASVKVSCKASGYTFTSYGISWVRQAPGQGLEWMGWISAYNGNTNYAQKLQGRVTMTTDTSTSTAYMELRSLRSDDTAVYYCARVGTYYYDSSAYYFDYWGQGTLVTVSS
VL: not shown
As to B18, the binding result was “binds”.

B19: C41P1 (antibody, V domains shown)
VH: QVQLVESGGGVVQPGRSLRLSCAASGFTFSSYAMHWVRQAPGKGLEWVAVISYDGRNKYYADSVKGRFTISRENSKNTLYLQMNSLRAEDTAVYYCARDLGVVVPAAIGWVNPRDDYYYYYGMDVWGQGTTVTVSS
VL: SYELTQPPSVSVSPGQTARITCSGDALPKQYAYWYQQKPGQAPVLVIYKDSERPSGIPERFSGSSSGTTVTLTISGVQAEDEADYYCQSADSSGTYRVFGTGTKVTVL
As to B19, the binding result is listed as “binds”.

B20: C102A4 (antibody, V domains shown)
VH: QVQLVQSGAEVKKPGSSVKVSCKASGGTFSSYAISWVRQAPGQGLEWMGGIIPIFGTANYAQKFQGRVTITADESTSTAYMELSSLRSEDTAVYYCATQPSYGDLDLFDYWGQGTLVTVSS
VL: not shown
For the molecule B20, the binding result is on record as “binds”.

B21: C12E7 (antibody, V domains shown)
VH: QVQLVESGGGVVQPGRSLRLSCAASGFTFSSYGMHWVRQAPGKGLEWVAVISYDGSNKYYADSVKGRFTISRDNSKNTLYLQMNSLRAEDTAVYYCAKSGYSYAYPMVYFDYWGQGTLVTVSS
VL: SYELTQPPSVSVAPGKTARITCGGNNIGSKSVHWYQQKPGQAPVLVVYDDSDRPSGIPERFSGSNSGNTATLTISRVEAGDEADYYCQVWDSSSDHPGVFGGGTKLTVL
Turning to B21, the binding result was “binds”.

B22: C53E1 (antibody, V domains shown)
VH: EVQLVQSGAEVKKPGESLKISCKGSGYSFTSYWIGWVRQMPGKGLEWMGIIYPGDSDTTYSPSFQGQVTISADKSISTAYLQWSSLKASDTAMYYCARRSNSPFPLIDYWGQGTLVTVSS
VL: not shown
On to B22, for which the binding result is listed as “binds”.

B23: C53F10 (antibody, V domains shown)
VH: EVQLVQSGAEVKKPGESLRISCKGAGYSFTSYWITWVRQMPGKGLEWMGRIDPSDSYTNYSPSFEGHVTISADKSISTAYLQWSSLKASDTAMYYCARLYCGGDCPPGYWGQGTLVTVSS
VL: not shown
Take B23: the binding result is “binds”.

B24: C63D3 (antibody, V domains shown)
VH: EVQLVESGGGLVQPGGSLRLSCAASGFTFSSYDMHWVRQATGKGLEWVSVIGTAGDTYYPGSVKGRFTISRENAKNSLYLQMNSLRAGDTAVYYCARGHSTGQGYSYYYYMDVWGKGTTVTVSS
VL: not shown
As to B24, the binding result is on record as “binds”.

B25: C18C11 (antibody, V domains shown)
VH: EVQLVESGGGVVQPGRSLRLSCAASGFTFSSYAMHWVRQAPGKGLEWVAVISYDGSNKYYADSVKGRFTISRDNSKNTLYLQMNSLRAEDTAVYYCASLITMVRGVFDYWGQGTLVTVSS
VL: not shown
Regarding B25, the binding result was “binds”.
